According to patent US20130031647A1 (PIERRE FABRE MEDICAMENT, published 2013):
Changes are numbered by the printed parent chain. Numbers in names are those of the source. One block for each molecule: values may come before it.

What was measured:
[1] = molecular target: constitutively active mutant (CAM) Asn^119Ser CXCR4 receptor (human) (UniProt P61073); experiment: cell-based or functional assay
CXCR2:YFP fusion protein = molecular target: T1, CXCR2:YFP fusion protein (UniProt P25025 1-360); experiment: BRET in transiently transfected HEK293 cells
T1 construct: whole, on cells
T1 sequence (looked up): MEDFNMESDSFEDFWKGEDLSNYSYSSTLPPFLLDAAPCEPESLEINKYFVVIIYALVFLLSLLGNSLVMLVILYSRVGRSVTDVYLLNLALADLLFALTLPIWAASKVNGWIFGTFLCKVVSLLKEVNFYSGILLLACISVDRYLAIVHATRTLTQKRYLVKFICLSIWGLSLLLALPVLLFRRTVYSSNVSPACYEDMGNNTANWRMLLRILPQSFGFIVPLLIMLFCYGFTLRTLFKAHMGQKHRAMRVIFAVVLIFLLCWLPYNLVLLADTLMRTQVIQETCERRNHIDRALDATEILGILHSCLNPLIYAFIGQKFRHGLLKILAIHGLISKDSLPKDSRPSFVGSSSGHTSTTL
Experimental: The day after, cells were distributed in poly-lysine pre-coated white 96 MW plates in complete culture medium [DMEM supplemented with 10% FBS]. Cells were first cultivated at 37° C. with CO₂ 5% in order to allow cell attachment to the plate. Cells were then starved with 200 μl DMEM/well overnight. Immediately prior to the BRET experiment, DMEM was removed and cells were quickly washed with PBS. […] After incubation for further 10 minutes at 37° C., light-emission acquisition at 485 nm and 530 nm was initiated using the Mithras LB940 multilabel reader (Berthold) (1 s/wavelength/well repeated 15 times at room temperature).
Calculation of BRET ratio was performed as previously described (Angers et al., 2000): [(emission_{530 nm})−(emission_{485 nm})×Cf]/(emission_{485 nm}), where Cf=(emission_{530 nm}) (emission_{485 nm}) for cells expressing the Rluc fusion protein alone under the same experimental conditions. […] For sake of readability, results are expressed in milliBRET units (mBU); mBU corresponds to the BRET ratio multiplied by 1000.

human CXCR4 receptor [2] = molecular target: T2, human CXCR4 receptor (human, UniProt P61073 1-352); experiment: dose-dependent inhibition of [^125I]SDF-1 binding, SPA, CHO-K1 membranes expressing human CXCR4
T2 construct: whole, on cells; Transfected in NIH3T3 and CHO-K1 cells (whole cells or cell membranes) or endogenous on human tumor cell lines (MDA-MB-231, HeLa, U937, Ramos, KARPAS299); also called hCXCR4; wild-type CXCR4 receptor
Experimental: (§1) CHO-K1 cells, stably and constitutively expressing human CXCR4 receptor were obtained upon transfection of naïve CHO-K1 cells (ATCC CCL-61) with a mammalian expression vector carrying the whole coding sequence of human CXCR4 receptor (RefSeq NM_{—}003467). Cells were propagated in complete culture medium [DMEM-Ham's F12 supplemented with 5% fetal calf serum (FCS) and 500 μg/ml of geneticin]. Radioligand binding experiments were conducted on cell membranes obtained upon mechanical scrapping of CHO/CXCR4 cells in lysis buffer [Hepes 20 mM, pH 7.4, NaCl 150 mM] followed by centrifugation (10000 g, 15 min). […] Upon centrifugation [1000 g for 10 min.] radioactive counts were measured in a scintillation counter (TopCount, Perkin Elmer).

human CXCR4 receptor [3] = molecular target: T2, human CXCR4 receptor; experiment: competition of [^125I]SDF-1 (1 nM) binding, SPA, CHO-K1 membranes expressing human CXCR4
Experimental: as §1

human CXCR4 receptor [4] = molecular target: T2, human CXCR4 receptor; experiment: cell-based or functional assay
human CXCR4 receptor [5] = molecular target: T2, human CXCR4 receptor; experiment: flow cytometry competition on CXCR4 transfected NIH3T3 cells; competitor: biotinylated murine 515H7
Source text: In a first series of experiments, we constructed and analysed the anti-CXCR4 binding activities of the three first humanized variants. […] Therefore, VH1 was combined with the three different variants of VL (FIG. 23D-F).

human CXCR4 receptor [6] = molecular target: T2, human CXCR4 receptor; experiment: competition of [^125I]SDF-1 (1 nM) binding, Mab at 100 nM, SPA, CHO-K1 membranes expressing human CXCR4
Experimental: as §1

- inhibition of SDF-1-stimulated [^35S]GTPγS binding [1]: -159%
- inhibition of basal [^35S]GTPγS binding [1]: -17%
Molecule: T140 (peptide)

- binding result (human CXCR4 receptor [5]): binds
B3: humanized antibody Hz515H7 VH1/c515H7 VL (antibody, human IgG1, V domains shown)
VH: EVQLVESGGGLVQPGRSLRLSCTASGFTFTDNYMSWVRQAPGKGLEWVGFIRNKANGYTTEYAASVKGRFTISRDDSKSIAYLQMNSLKTEDTAVYYCARDVGSNYFDYWGQGTLVTVSS
VL: DIVMSQSPSSLAVSAGEKVTMSCKSSQSLFNSRTRKNYLAWYQQKPGQSPKLLIYWASARDSGVPARFTGSGSETYFTLTISRVQAEDLAVYYCMQSFNLRTFGQGTKVEIKR
notes: also called VH1 combined with the chimeric VL (cVL); VH1 combined with the murine VL

- % inhibition of [^125I]SDF-1 (human CXCR4 receptor [3]): 49%
- % of inhibition of [^35S]GTPγS binding stimulated by SDF-1 (100 nM) (human CXCR4 receptor [4]): 58%
- IC50 in [^35S]GTPγS binding, NIH3T3/CXCR4 cells (human CXCR4 receptor [4]): 8.5 nM
- inhibition of SDF-1-induced β-arrestin recruitment (BRET) (human CXCR4 receptor [4]): ~71%
- percentage of inhibition of SDF-1-induced BRET increase, CXCR4 homo-dimers (human CXCR4 receptor [4]): ~21%
B8: humanized antibody Hz515H7 VH1 D76N VL2.3 (antibody, human IgG1, kappa, V domains shown)
VH: B3 VH with D76N
VL: B3 VL with S5T, S9D, A15L, K18R, V19A, S49P, A66D, R83S, V84L
notes: human IgG1/kappa format; also called hz515H7VL2.3

- IC50 in [^35S]GTPγS binding, Hela cells (human CXCR4 receptor [4]): 0.2 nM
- IC50 in [^35S]GTPγS binding, NIH3T3/CXCR4 cells (human CXCR4 receptor [4]): 1.9 nM
- decrease in SDF-1-induced U937 cells migration (human CXCR4 receptor [4]): > 80%
- inhibition of SDF-1-induced β-arrestin recruitment (BRET) (human CXCR4 receptor [4]): ~95%
B9: murine monoclonal antibody 515H7 (antibody, V domains shown)
VH: EVNLVESGGGLVQPGGSLRLSCATSGFTFTDNYMSWVRQPPGKALEWLGFIRNKANGYTTDYSASVRGRFTISRDNSQSILYLQMNALRAEDSATYYCARDVGSNYFDYWGQGTTLTVSS
VL: DIVMSQSPSSLAVSAGEKVTMSCKSSQSLFNSRTRKNYLAWYQQKPGQSPKLLIYWASARDSGVPARFTGSGSETYFTLTISRVQAEDLAVYYCMQSFNLRTFGQGTKVEIK

The remaining lines, values behind:

B1: CXCR4/Rluc fusion protein (receptor, UniProt P61073 1-352, looked up)
chain: MEGISIYTSDNYTEEMGSGDYDSMKEPCFREENANFNKIFLPTIYSIIFLTGIVGNGLVILVMGYQKKLRSMTDKYRLHLSVADLLFVITLPFWAVDAVANWYFGNFLCKAVHVIYTVNLYSSVLILAFISLDRYLAIVHATNSQRPRKLLAEKVVYVGVWIPALLLTIPDFIFANVSEADDRYICDRFYPNDLWVVVFQFQHIMVGLILPGIVILSCYCIIISKLSHSKGHQKRKALKTTVILILAFFACWLPYYIGISIDSFILLEIIKQGCEFENTVHKWISITEALAFFHCCLNPILYAFLGAKFKTSAQHALTSVSRGSSLKILSKGKRGGHSSVSTESESSSFHSS
notes: whole, on cells; Transiently expressed in HEK293 cells for BRET; also called CXCR4 tagged with luciferase; not shown: Renilla reniformis luciferase (Rluc)
- binding result (CXCR2:YFP fusion protein): binds

B2: humanized antibody Hz515H7 VH1 D76N VL2.2 (antibody, human IgG1, kappa, V domains shown)
VH: B3 VH with D76N
VL: B3 VL with S5T, S9D, A15L, K18R, V19A, S49P, A66D, L89V
notes: human IgG1/kappa format; also called hz515H7VL2.2
- IC50 (human CXCR4 receptor [2]): 5.91 nM
- % inhibition of [^125I]SDF-1 (human CXCR4 receptor [3]): 61%
- % of inhibition of [^35S]GTPγS binding stimulated by SDF-1 (100 nM) (human CXCR4 receptor [4]): 66%
- IC50 in [^35S]GTPγS binding, NIH3T3/CXCR4 cells (human CXCR4 receptor [4]): 5.19 nM
- inhibition of SDF-1-induced β-arrestin recruitment (BRET) (human CXCR4 receptor [4]): ~82%
- percentage of inhibition of SDF-1-induced BRET increase, CXCR4 homo-dimers (human CXCR4 receptor [4]): ~33%

B4: humanized antibody Hz515H7 VH1 VL1 (antibody, human IgG1, kappa, V domains shown)
VH: B3 VH
VL: DIVMTQSPDSLAVSLGERATINCKSSQSLFNSRTRKNYLAWYQQKPGQPPKLLIYWASTRESGVPDRFSGSGSGTDFTLTISSLQAEDVAVYYCMQSFNLRTFGQGTKVEIKR
notes: human IgG1/kappa format; also called humanized variant 515H7 VH variant 1 VL variant 1
- binding result (human CXCR4 receptor [5]): binds

B5: humanized antibody Hz515H7 VH1 D76N VL2.1 (antibody, human IgG1, kappa, V domains shown)
VH: B3 VH with D76N
VL: B3 VL with S5T, S9D, A15L, K18R, V19A, S49P, A66D, T69S
notes: human IgG1/kappa format; also called hz515H7VL2.1
- IC50 (human CXCR4 receptor [2]): 6.69 nM
- % inhibition of [^125I]SDF-1 (human CXCR4 receptor [3]): 68%
- % of inhibition of [^35S]GTPγS binding stimulated by SDF-1 (100 nM) (human CXCR4 receptor [4]): 69%
- IC50 in [^35S]GTPγS binding, NIH3T3/CXCR4 cells (human CXCR4 receptor [4]): 4.05 nM
- inhibition of SDF-1-induced β-arrestin recruitment (BRET) (human CXCR4 receptor [4]): ~81%
- percentage of inhibition of SDF-1-induced BRET increase, CXCR4 homo-dimers (human CXCR4 receptor [4]): ~65%

B6: humanized antibody Hz515H7 VH1 D76N VL2 (antibody, human IgG1, kappa, V domains shown)
VH: B3 VH with D76N
VL: B3 VL with S5T, A15L, K18R, V19A
notes: human IgG1/kappa format; Biotinylated in the IHC study; also called hz515H7VL2; hz515H7 VH D76N VL2
- IC50 (human CXCR4 receptor [2]): 1.44 nM
- % inhibition of [^125I]SDF-1 (human CXCR4 receptor [3]): 77%
- % of inhibition of [^35S]GTPγS binding stimulated by SDF-1 (100 nM) (human CXCR4 receptor [4]): 86%
- IC50, SDF-1 induced U937 cell migration (human CXCR4 receptor [4]): 4.53 ng/mL
- IC50 in [^35S]GTPγS binding, NIH3T3/CXCR4 cells (human CXCR4 receptor [4]): 3.86 nM
- inhibition of SDF-1-induced β-arrestin recruitment (BRET) (human CXCR4 receptor [4]): ~94%
- percentage of inhibition of SDF-1-induced BRET increase, CXCR4 homo-dimers (human CXCR4 receptor [4]): ~88%

B7: hz515H7 VH1 VL2 (antibody, human IgG1, kappa, V domains shown)
VH: B3 VH
VL: B3 VL with S5T, A15L, K18R, V19A
notes: also called VH1 combined with variant 2 of VL
- binding result (human CXCR4 receptor [5]): binds

B10: anti-CXCR4 chimeric Mab c515H7 (antibody, human IgG1, kappa, V domains shown)
VH: B9 VH
VL: B3 VL
notes: also called chimeric 515H7; chimeric antibody
- % inhibition of [^125I]SDF-1 (human CXCR4 receptor [6]): 55%
- IC50 in [^35S]GTPγS binding, Hela cells (human CXCR4 receptor [4]): 0.6 nM
- IC50 in [^35S]GTPγS binding, NIH3T3/CXCR4 cells (human CXCR4 receptor [4]): 1.5 nM
- decrease in SDF-1-induced U937 cells migration (human CXCR4 receptor [4]): > 80%
- inhibition of SDF-1-induced β-arrestin recruitment (BRET) (human CXCR4 receptor [4]): ~93%
